What was measured:
Type in all cases: biochemical
[1] = Susceptibility to 1,10-phenanthroline at a high concentration
Description: (§1) 1.0 mL of 0.1 M potassium phosphate buffer (pH 7.0), 1.0 mL of 1.0 M D-glucose, 0.14 mL of 3 mM 2,6-dichlorophenol indophenol (hereinafter referred to as DCIP), 0.2 mL of 3 mM 1-methoxy-5-methylphenazinium methylsulfate (hereinafter referred to as 1-m-PMS), 0.06 mL of methanol and 0.55 mL of distilled water are added to a 3-mL quartz cell (light path length: 1 cm), and the cell is placed in a spectrophotometer provided with a thermostat cell holder and incubated at 37° C. for 10 minutes. Thereafter, 0.05 mL of an enzyme solution is added to the cell, and then, a change in the absorbance of DCIP at 600 nm (ΔABS/min) is determined. The molar extinction coefficient of DCIP at pH 7.0 is taken as 16.3×10^3 cm^−1 M^−1, and enzymatic activity to reduce 1 μmol of DCIP per minute is substantially equivalent to 1 unit of the enzymatic activity. Therefore, the enzymatic activity is determined from the change in the absorbance according to Equation I. In Example 8, methanol was replaced with the same amount of distilled water.
The enzymatic activity is determined in the following manner in Examples 3 and 6 wherein a plate reader (Japan Molecular Device Corporation, SpectraMax Plus384) is used. Thus, culture supernatant that had been diluted in advance with an appropriate magnification is added to a 96-well microplate with an amount of 100 μl per well. A reagent for the determination of the enzymatic activity comprising phosphate buffer (pH 7.0), 1.0 M D-glucose, 3 mM DCIP, 3 mM 1-m-PMS and methanol with a volume ratio of 0.1:1:0.14:0.2:0.06 is added to the 96-well microplate with an amount of 100 μl per well, and a change in the absorbance of DCIP at 600 nm (ΔABS/min) is then determined. The enzymatic activity can be calculated by conversion in proportion to a change in the absorbance of an enzyme solution for which the enzymatic activity has already been known by the above-mentioned activity determination procedure using the spectrophotometer.
(§2) In the following examples, a value of the enzymatic activity determined by the spectrometer or plate reader using the above reagent composition is considered as a blank value. On the other hand, a sample value is determined using a methanol solution comprising the inhibitor such as 1,10-phenanthroline or proflavin hydrochloride at a final concentration of 1 mM instead of the methanol. Enzymatic activity (unit/mL)=(−ΔABS/16.3)×3.0/0.05×(Dilution ratio of enzyme) [Equation 1]
The relative activity was determined in the same manner as in Examples 3 and 6 in the co-existence of the inhibitors at a high concentration.

[2] = Relative enzymatic activity of GLD (DCIP/1-m-PMS, plate reader, yeast culture supernatant) with 1,10-phenanthroline present; settings: for Relative Activity: random-mutation mutants, sample value with inhibitor at 1 mM / blank value, inhibitor not named in Table 1; for Relative Activity [%] 1,10-Phenanthroline: site-specific mutants, inhibitor final concentration 1 mM
Procedure, shortened: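 Yeast transformants grown in YPD, 30° C., 24 h; diluted culture supernatant assayed in phosphate buffer pH 7.0 with D-glucose, DCIP and 1-m-PMS, DCIP absorbance change at 600 nm. Relative activity (%) = activity with 1 mM 1,10-phenanthroline (final, replacing methanol) divided by activity without it.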

[3] = Susceptibility of purified enzyme to proflavin hydrochloride (spectrophotometer); settings: inhibitor 1 mM
Description: as §1, §2
(§3) The mutants having the mutation of H341W and F432L, respectively, were inoculated into a shake flask containing 150 mL the YPD medium. After shaking culture at 30° C. and 120 rpm for 48 hours, the culture mixture was centrifuged at 3,000×g for 5 min. and the supernatant was filtered through a membrane filter with 10 μm. […]
(§4) After diluting the purified enzyme to an appropriate concentration, the sample value and blank value were determined in accordance with the method for determination of the enzymatic activity using the spectrophotometer.

[4] = Relative enzymatic activity of GLD (DCIP/1-m-PMS, plate reader, yeast culture supernatant) with proflavin hydrochloride present; settings: site-specific mutants, inhibitor final concentration 1 mM
Procedure, shortened: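 Culture supernatant diluted and mixed with reagent of phosphate buffer pH 7.0, 1.0 M D-glucose, 3 mM DCIP, 3 mM 1-m-PMS and methanol (0.1:1:0.14:0.2:0.06). DCIP absorbance decrease at 600 nm followed; proflavin hydrochloride in methanol replaced methanol at 1 mM final. Activity expressed as % of inhibitor-free blank.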

[5] = Susceptibility to proflavin at a high concentration; settings: final conc. 2 mM
Description: as §1, with “The molar extinction coefficient of DCIP at pH 7.0 is taken as 16.3×10^3 cm^−1 M^−1, and enzymatic activity to reduce 1 μmol of DCIP per minute is substantially equivalent to 1 unit of the enzymatic activity.” left out
The enzymatic activity is determined in the following manner in Examples 3 and 6 wherein a plate reader (Japan Molecular Device Corporation, SpectraMax Plus384) is used. […] A reagent for the determination of the enzymatic activity comprising phosphate buffer (pH 7.0), 1.0 M D-glucose, 3 mM DCIP, 3 mM 1-m-PMS and methanol with a volume ratio of 0.1:1:0.14:0.2:0.06 is added to the 96-well microplate with an amount of 100 μl per well, and a change in the absorbance of DCIP at 600 nm (ΔABS/min) is then determined. […]

[6] = Susceptibility of purified enzyme to 1,10-phenanthroline (spectrophotometer); settings: inhibitor 1 mM
Description: as §1, §2, §3, §4

Molecule	Relative Activity[%] ([1]; final conc. 1 mM)	Relative Activity[%] ([1]; final conc. 5 mM)	Relative Activity[%] ([1]; final conc. 10 mM)	Relative Activity[%] ([1]; final conc. 20 mM)	Relative Activity [2]	Relative Activity [%] 1,10-Phenanthroline [2]	Relative Activity [%] Proflavin hydrochloride [3]	Relative Activity [%] Proflavin hydrochloride [4]	Relative Activity[%] [5]	Relative Activity [%] 1,10-Phenanthroline [6]
F432L: modified GLD: SEQ ID NO: 1 with substitution F432L (protein, listed as Aspergillus terreus, SIGNAL (1)..(19)) MLGKLSFLSALSLAVAAPLSNSTSAKYDYIVIGGGTSGLAVANRLSEDPNVNVLILEAGGSVWNNPNVTNVDGYGLAFGSDIDWQYQSVNQPYGGNLSQVLRAGKALGGTSTINGMAYTRAEDVQIDAWETIGNTGWTWKNLFPYYRKSENFTVPTKSQTSLGASYEAGAHGHEGPLDVAFTQIESNNLTTYLNRTFQGMGLPWTEDVNGGKMRGFNLYPSTVNLEEYVREDAARAYYWPYKSRPNLHVLLNTFANRIVWDGEAHDGHITASGVEITSRNGTVRVINAEKEVIVSAGALKSPAILELSGIGNPSVLDKHNIPVKVNLPTVGENLQDQVNSHMDASGNTSISGTKAVSYPDVYDVFGDEAESVAKQIRANLKQYAADTAKANGNIMKAADLERLFEVQYDLIFKGRVPIAEVLNYPGSATSVLAEFWALLPFARGSVHIGSSNPAEFPVINPNYFMLDWDAKSYVAVAKYIRRSFESYPLSSIVKESTPGYDVIPRNASEQSWKEWVFDKNYRSNFHPVGTAAMMPREIGGVVDERLNVYGTTNVRVVDASVLPFQVCGHLVSTLYAVAERAADLIKADAGRR	97.0%	64.2%	47.2%	32.1%	80.4%	91.7%	88.1%	68.1%	91.6%	90.8%
Wild-type: wild-type FAD-conjugated glucose dehydrogenase (GLD) of Aspergillus terreus FERM BP-08578, SEQ ID NO: 1 (protein, listed as Aspergillus terreus, FAD cofactor; SIGNAL (1)..(19)) MLGKLSFLSALSLAVAAPLSNSTSAKYDYIVIGGGTSGLAVANRLSEDPNVNVLILEAGGSVWNNPNVTNVDGYGLAFGSDIDWQYQSVNQPYGGNLSQVLRAGKALGGTSTINGMAYTRAEDVQIDAWETIGNTGWTWKNLFPYYRKSENFTVPTKSQTSLGASYEAGAHGHEGPLDVAFTQIESNNLTTYLNRTFQGMGLPWTEDVNGGKMRGFNLYPSTVNLEEYVREDAARAYYWPYKSRPNLHVLLNTFANRIVWDGEAHDGHITASGVEITSRNGTVRVINAEKEVIVSAGALKSPAILELSGIGNPSVLDKHNIPVKVNLPTVGENLQDQVNSHMDASGNTSISGTKAVSYPDVYDVFGDEAESVAKQIRANLKQYAADTAKANGNIMKAADLERLFEVQYDLIFKGRVPIAEVLNYPGSATSVFAEFWALLPFARGSVHIGSSNPAEFPVINPNYFMLDWDAKSYVAVAKYIRRSFESYPLSSIVKESTPGYDVIPRNASEQSWKEWVFDKNYRSNFHPVGTAAMMPREIGGVVDERLNVYGTTNVRVVDASVLPFQVCGHLVSTLYAVAERAADLIKADAGRR	–	–	–	–	25.7%	30.0%	50.9%	35.0%	–	41.1%
H341W: modified GLD: SEQ ID NO: 1 with substitution H341W (protein, listed as Aspergillus terreus, SIGNAL (1)..(19)) MLGKLSFLSALSLAVAAPLSNSTSAKYDYIVIGGGTSGLAVANRLSEDPNVNVLILEAGGSVWNNPNVTNVDGYGLAFGSDIDWQYQSVNQPYGGNLSQVLRAGKALGGTSTINGMAYTRAEDVQIDAWETIGNTGWTWKNLFPYYRKSENFTVPTKSQTSLGASYEAGAHGHEGPLDVAFTQIESNNLTTYLNRTFQGMGLPWTEDVNGGKMRGFNLYPSTVNLEEYVREDAARAYYWPYKSRPNLHVLLNTFANRIVWDGEAHDGHITASGVEITSRNGTVRVINAEKEVIVSAGALKSPAILELSGIGNPSVLDKHNIPVKVNLPTVGENLQDQVNSWMDASGNTSISGTKAVSYPDVYDVFGDEAESVAKQIRANLKQYAADTAKANGNIMKAADLERLFEVQYDLIFKGRVPIAEVLNYPGSATSVFAEFWALLPFARGSVHIGSSNPAEFPVINPNYFMLDWDAKSYVAVAKYIRRSFESYPLSSIVKESTPGYDVIPRNASEQSWKEWVFDKNYRSNFHPVGTAAMMPREIGGVVDERLNVYGTTNVRVVDASVLPFQVCGHLVSTLYAVAERAADLIKADAGRR	99.4%	78.1%	63.2%	45.8%	–	100.3%	144.3%	88.4%	138.2%	89.5%
